# Measurements: the supplement of paper PMC9170038
# Test system: MS2 coat protein
# Assay: apparent KD of MS2 coat protein; higher = weaker reporter binding
# Settings: Eterna round: R107
# Procedure: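 RNA-MaP round R107: designed RNA switches with theophylline, tryptophan, arginine or FMN aptamers are transcribed on-chip within common flanks. They are titrated with SNAP-549-labelled MS2 coat protein in RNA-MaP buffer (100 mM Tris pH 7.5, 80 mM KCl, 4 mM MgCl2), without ligand or with the indicated ligand. Median apparent KD per design.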
# [1] = input ligand: theophylline 20 uM
# [2] = input ligand: theophylline 2 mM
# [3] = input ligand: tryptophan 2.4 mM
Sequence,apparent KD of MS2 coat protein (input ligand: arginine 13.2 mM),apparent KD of MS2 coat protein (input ligand: none),apparent KD of MS2 coat protein [1],apparent KD of MS2 coat protein [2],apparent KD of MS2 coat protein [3]
UCGCUCUGGGUGAGAUCCGGAGAUAUGGAAGGAGCGCUGAUUCCAGCAGGUAGGUCGCCAACGGACAUGAGGAUCACCCAUGUAC [Same State - Arginine A (Freestyle 11)],36.6 nM,46.9 nM,60.4 nM,55.5 nM,43.1 nM
ACAUGAGGAUCACCCAUGUACGAGUCGGAAGGAGCGGCAAUUAAGCCAGGUAGGUCGCCGGCAGAGAGUGUCAUUGUAAGUAUGA [Same State - Arginine A / A],14.2 nM,14.8 nM,26.8 nM,12.3 nM,14 nM
AAUACCGGUCCUCGAAGUGAUCCUCAUGAACGAGGACCGGUACGGCCGCCACUCGAUAACAUGAGGAUCACCCAUGUAAUAAUAA [|T'-M'-Trp-Ms2|_Design4],72.8 nM,63.9 nM,93.1 nM,115 nM,70.6 nM
CUGCCACAGAUAGAUACCAGAGGCGUGCAAGCUACAGCUCACAUGAGGAUCACCCAUGUUCUCCCUUGGCAGCUACGGUGUAAGG [theeternabot_exclusion_MS2_Theo_B_26],17.1 nM,,24 nM,,19.4 nM
UCGGGCAGAGCGGCCGCCACUGUUUGGCGUGCGGAUGACGGAACAUGAGGAUCACCCAUGUUGAUUAGGACCGGGCUUGCGGAGA [qpqullin],11.3 nM,14.7 nM,24.1 nM,13.8 nM,14.7 nM
UGUAUGGACUGAAGGAGCGGGUAAAUAACCUGAGGAUCACCCAGGUAAAAGGCGAAAGCCACCCAGGUAGGUCGCAGUCCAUACU,10.6 nM,,13.7 nM,12.7 nM,11 nM
GCACAUGAGGAUCACCCAUGUAUUACUGAAGGAGCGAGACAGAACUCAGGUAGGUCGCAGACUGCACAAUUGCGGACGACAUGGG [Exclusion Arginine A GF22],14.6 nM,31.5 nM,41 nM,31.2 nM,34.3 nM
UUAUUUAACGGAAGGAGCGCGGAUAAAAUAGUGGGUAAACAUGAGGAUCACCCAUGUAAACCGCAGGUAGGUCGCCGAUAUUUAU [AstrosEXyARgB#5],21.5 nM,43.1 nM,48.8 nM,33.2 nM,35.9 nM
UGUAACAUGAGGAUCACCCAUGUGAGUGAUACCAGACUAGUGUUAGUCCCUUGGCAGCACGCUGGACGAAUGUGUAGUCUAUGCG [Same State - Theophylline A (Freestyle 19)],55.8 nM,78 nM,108 nM,58.3 nM,63.9 nM
AUAUUAAUCGGAAGGAGCGGUACAUGAGGAUCACCCAUGUGUGAAGCGAGCAGAUCCCGUUACCAGGUAGGUCGCCGAGUUAUGA [XArg-B6],85.4 nM,213 nM,229 nM,187 nM,148 nM
GGACUCGUCACGGCCGCCACUGCGGUGGUGUGACAUGAGGAUCACCCAUGUUGUCAUGCGGCCCUUAGGACCGGGUGUCGCUUCC [#1 Exclusion - Tryptophan B Attempt #24 (HarryS)],124 nM,,221 nM,336 nM,
AAUCAUGAAAACAUGACAUGAGGAUCACUCCGAGGACCGGUACGGCCGCCACUCGCGAGGAGGCACAUGAGGAUCACCCAUGUUA [SS Tryp A #1],31.6 nM,,114 nM,148 nM,
AAUAUUUGCCACAUGAGGAUCACCCAUGUGCGAGGACCGGUACGGCCGCCACUCGGUCGGUGGUUAAUGAAGAUAAACAAUAAUG [XTryp A #11],7.7 nM,12 nM,15.7 nM,11.5 nM,11.2 nM
GACAUGAGGAUCACCCAUGUUUUCUAUGAAGGAGCGUCGGAAAUGACAGGUAGGUCGCAUGGUAGGACUUGUAUCUUGUAUGUAG [EAA NP+V+V2 #10],13.4 nM,,16.2 nM,14.7 nM,15.5 nM
UUGGGUAUGCGAAGGAGCGGGAAAUAUAUAUAUAUAAUCCUAACAUGAGGAUCACCCAUGUCCCAGGUAGGUCGCGCAUGUUUGG [12.K],128 nM,207 nM,250 nM,423 nM,247 nM
AUAAAUGGGUUAAUUAGUUUUAGGUCCAGUCGAGGACCGGUACGGCCGCCACUCGUCCCAAGUUACAUGAGGAUCACCCAUGUUA [JR_ExcTryptoA_Sub014],33.8 nM,,52.5 nM,91.9 nM,
AUAUAUACAUGAGGAUCACCCAUGUUAUUUCGAGGACCGGUACGGCCGCCACUCGAUAGAGUAGAAGUAACAUGUGUUAGUUGAU [JR_SSTryptoA_Sub014],16.3 nM,,32.8 nM,39.1 nM,
